± gives the standard deviation of the averaged measurements.

Consider 79 sequences from the supplement of paper PMC10126150.
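Note: ATP exposure 15 min at 22 °C before imaging.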

In this data set the test system is ATP. In words: switch fluorescence ratio, 500 uM ATP over buffer (Cy3 cluster intensity, sum of 5 cycles each) (fold (ratio)); higher = stronger signal-on switching upon ATP binding; sequences stand for … in TCGTCGGCAGCGTCAGATGTGTATAAGAGACAGTTTTTTTTTTTTTTTTTTTTTTTTT…TC. The following applies: aptamer strand: ATP DNA aptamer (quencher-CACCTGGGGGAGTATTGCGGAGGAAGG + anchor), 100 nM annealed; ATP concentration: 500 uM. The method in brief:
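The fluorescence ratio divides summed target-cycle Cy3 intensity by summed buffer-cycle Cy3 intensity for each cluster and is averaged per switch-domain sequence. Cy3-labelled switching-strand clusters on a modified Illumina MiSeq flow-cell were annealed to 100 nM quencher-labelled ATP aptamer, then imaged in selection buffer and again after 15 min with 500 uM ATP at 22 °C. Five such cycles were run, with NaOH stripping and re-annealing between them, and clusters outside 100-1000 RFU were excluded.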
With TAAGAAGTCT, the switch fluorescence ratio was found to be 1.04 ± 0.048.

Take ACGGTTAAGG: the switch fluorescence ratio is 1.03 ± 0.019.

As for AAGGCTGCGA, the switch fluorescence ratio was found to be 1.018 ± 0.0076.

As to AGGTTCTCTG, the switch fluorescence ratio turned out to be 0.9942 ± 0.0011.

CGGCCAGGAA: the switch fluorescence ratio is 1.05 ± 0.024.

Consider ATCGATTGAT, for which the switch fluorescence ratio was found to be 1.02 ± 0.011.

As to GTCATGAGAT, the switch fluorescence ratio worked out at 0.9987 ± 0.0047.

Take TTGGATTTGG: the switch fluorescence ratio turned out to be 1.02 ± 0.051.

As for AGCAAAGAAT, the switch fluorescence ratio was 1.02 ± 0.042.

As for TTACGTGGGA, the switch fluorescence ratio is 1.02 ± 0.026.

With GGACCGGGGT, the switch fluorescence ratio was found to be 0.966 ± 0.034.

On to AGGCCCGTGT, for which the switch fluorescence ratio is 0.98 ± 0.068.

With GAGAATCGGG, the switch fluorescence ratio is 0.9564 ± 0.0089.

For the sequence TGGGGTTTCG, the switch fluorescence ratio was 0.973 ± 0.038.

TGGTAATATC: the switch fluorescence ratio is 1.012 ± 0.0024.

With TTTGAGTTGT, the switch fluorescence ratio is 0.962 ± 0.035.

With TTTGTGATTA, the switch fluorescence ratio was 0.9954 ± 0.0093.

Consider AGGGCGGGGT, for which the switch fluorescence ratio came out at 1.02 ± 0.033.

Regarding CGACTTACGG, the switch fluorescence ratio came to 1.11 ± 0.03.

In the case of AATTCTTTTG, the switch fluorescence ratio came to 1.01 ± 0.043.

As to GGGAGTCGGG, the switch fluorescence ratio is 1.01 ± 0.0092.

In the case of CGTTGTGGGA, the switch fluorescence ratio is 1.01 ± 0.038.

For the sequence CGATGGTGAA, the switch fluorescence ratio was 1.02 ± 0.035.

In the case of TTTTGGAAGT, the switch fluorescence ratio came out at 0.993 ± 0.042.

Consider ACGGGCAGGG, for which the switch fluorescence ratio worked out at 1.03 ± 0.041.

As for ACTAAAGGGG, the switch fluorescence ratio was 1.04 ± 0.021.

Take GCTGTAACGA: the switch fluorescence ratio was 0.998 ± 0.017.

For CTCAGGAGGG, the switch fluorescence ratio amounted to 0.997 ± 0.047.

GGGTAGACAG: the switch fluorescence ratio stood at 0.9316 ± 0.0069.

On to ATTAGGATGT, for which the switch fluorescence ratio stood at 0.9948 ± 0.0027.

Turning to GTTTGAAGGT, the switch fluorescence ratio is 1.01 ± 0.011.

For the sequence CAGTGTCTGA, the switch fluorescence ratio is 1.05 ± 0.037.

Consider GCATAAGGTT, for which the switch fluorescence ratio was determined as 0.993 ± 0.031.

GGTACAGGGA: the switch fluorescence ratio was 1.02 ± 0.015.

With ACATTTATGT, the switch fluorescence ratio was determined as 0.9939 ± 0.0052.

On to TAAAGGGGTT, for which the switch fluorescence ratio is 0.986 ± 0.035.

On to TTAGTTAAAT, for which the switch fluorescence ratio is 1.002 ± 0.0013.

For GTTTTAATTT, the switch fluorescence ratio turned out to be 0.988 ± 0.019.

Consider TTACGCATCA, for which the switch fluorescence ratio was found to be 1.14 ± 0.021.

On to GCGACGGGAA, for which the switch fluorescence ratio is 1.34 ± 0.09.

For TCCCGTTTGA, the switch fluorescence ratio was found to be 1.01 ± 0.016.

Take GGTTGCGGCA: the switch fluorescence ratio worked out at 1.01 ± 0.041.

With GCGCTCGTCG, the switch fluorescence ratio turned out to be 1.07 ± 0.012.

Take AGAGTTCCTG: the switch fluorescence ratio amounted to 1.01 ± 0.028.

Consider AATTAGAATG, for which the switch fluorescence ratio amounted to 0.974 ± 0.029.

In the case of TATCCGGAAT, the switch fluorescence ratio is 1.79 ± 0.76.

On to GGCAACGAAA, for which the switch fluorescence ratio stood at 1.039 ± 0.0099.

Regarding GCGACTGCGG, the switch fluorescence ratio worked out at 0.982 ± 0.021.

For the sequence TGTGGAGCAT, the switch fluorescence ratio was 1.29 ± 0.071.

TTCTGAGCTT: the switch fluorescence ratio was found to be 1.07 ± 0.025.

With CCGAAGGGGC, the switch fluorescence ratio stood at 1.52 ± 0.083.

As for TAGTACGGGC, the switch fluorescence ratio was 1 ± 0.044.

For the sequence ATAGAAGAAA, the switch fluorescence ratio was 1.02 ± 0.047.

For TGGGGCGCTA, the switch fluorescence ratio turned out to be 1.07 ± 0.11.

Take ATTTATTTGC: the switch fluorescence ratio worked out at 1.01 ± 0.022.

Consider AGATGAGAGT, for which the switch fluorescence ratio came out at 1 ± 0.018.

ACGAGGGTGG: the switch fluorescence ratio was found to be 1.065 ± 0.0084.

Turning to CCATATCGTG, the switch fluorescence ratio turned out to be 0.988 ± 0.026.

Regarding GATTTAATCC, the switch fluorescence ratio is 0.974 ± 0.032.

Turning to GATGAGCCCT, the switch fluorescence ratio turned out to be 1.03 ± 0.015.

In the case of AATTTAGTGC, the switch fluorescence ratio worked out at 0.998 ± 0.07.

Turning to TGAAGGTTAC, the switch fluorescence ratio turned out to be 1.02 ± 0.012.

Consider ACAATGTCTA, for which the switch fluorescence ratio stood at 0.962 ± 0.022.

Take ACAGGATGTT: the switch fluorescence ratio amounted to 1.01 ± 0.027.

Turning to GACGTTCTTG, the switch fluorescence ratio was 0.9862 ± 0.0027.

As to CTAATGGGTT, the switch fluorescence ratio is 0.98 ± 0.037.

Consider TTTGTTAGGG, for which the switch fluorescence ratio stood at 0.994 ± 0.022.

As to TTTTATAT, the switch fluorescence ratio amounted to 0.98 ± 0.03.

Consider GGGGCTATGT, for which the switch fluorescence ratio turned out to be 1.08 ± 0.14.

Take TGGTTGGTGT: the switch fluorescence ratio amounted to 1.06 ± 0.015.

In the case of TTACGAGTGG, the switch fluorescence ratio came out at 1.02 ± 0.025.

Turning to AGGGAGTTAA, the switch fluorescence ratio was determined as 0.973 ± 0.054.

As for TTAACTGGAA, the switch fluorescence ratio came to 0.978 ± 0.031.

For the sequence TGTATTATGG, the switch fluorescence ratio was determined as 0.968 ± 0.0097.

GCCAAAGGGA: the switch fluorescence ratio is 1.01 ± 0.063.

In the case of CTAATGGCTT, the switch fluorescence ratio was found to be 0.977 ± 0.033.

On to AATTGGGCCT, for which the switch fluorescence ratio amounted to 1.034 ± 0.003.

On to CGAGAGTGTT, for which the switch fluorescence ratio was determined as 0.995 ± 0.026.

Regarding GTTGGATAAT, the switch fluorescence ratio is 1 ± 0.033.
